Reference: publication PMC6430397, “The pharmacological properties of 3-arm or 4-arm DOTA constructs for conjugation to α-melanocyte-stimulating hormone analogues for melanoma imaging” (PLoS ONE, 2019)
Read-outs that look alike come from different tables or passages of the source.

Assay: Biological distribution in B16-F1 melanoma-bearing mice
Type: in vivo, mouse
Details: male, C57BL6, mouse, in vivo, iv, 37 kBq/mouse, total radioactivity, mean, n = 3 mice; for tissue uptake at 10 min / tissue uptake dose at 10 min: 10 min after i.v. 37 kBq/mouse; for tissue uptake at 0.5 h / tissue uptake dose at 0.5 h: 30 min after i.v. 37 kBq/mouse; for tissue uptake at 1 h / tissue uptake dose at 1 h: 60 min after i.v. 37 kBq/mouse; for tissue uptake at 2 h / tissue uptake dose at 2 h: 120 min after i.v. 37 kBq/mouse; for tissue uptake at 3 h / tissue uptake dose at 3 h: 180 min after i.v. 37 kBq/mouse
Protocol: C57BL6 male mice (5 weeks old) were transplanted with B16-F1 cells (5 × 10^5 cells/100 μL) into the thigh of the mice. […] The mice were housed and continuously monitored each day for 2 weeks in a 12-hour light/12-hour dark cycle with free access to food and water. The tumor size reached 8.7 ± 2.8 mm at 2 weeks after transplant of cells. Two mice with tumor sizes of 13 and 15 mm were excluded from our experiments. Mice with a tumor size <10 mm were fasted with no food overnight with water supplied ad libitum before experiments.
For biological distribution studies, B16-F1-bearing mice were administered ^111In-labeled 3-arm or 4-arm DOTA-α-MSH via the tail vein (37 kBq/mouse). At 10, 30, 60, 120, and 180 min after injection, the mice were euthanized under isoflurane (n = 3 per time point), and the following tissues were collected: brain, lung, heart, stomach, liver, small intestine, large intestine, kidney, blood, muscle, and B16-F1 melanoma. Tissues were weighed, and radioactivity was quantified using an automated γ-ray counter to calculate the percent injected dose (%ID) or percent injected dose per gram of tissue (%ID/g).
For SPECT imaging, ^111In-labeled 3-arm or 4-arm DOTA-α-MSH was injected into the tail vein of four B16-F1-bearing mice in total (37 MBq/mouse). For SPECT imaging, acquisition was started at 10 min after injection and continued every 10 min for 180 min. The data were reconstructed using the ordered subset expectation maximization method with 16 subsets and six iterations including no scatter and attenuation correction. The voxel size was set to 0.8×0.8×0.8 mm. Post-reconstruction smoothing filtering was applied using a 1.0-mm Gaussian filter. […] In these images, three to five regions of interest were placed over the kidney, muscle, and B16-F1 melanoma in which accumulation could be seen, and the time activity curve of each was obtained as the %ID/g.

[1] = read-out: Biological distribution, Blood
[2] = read-out: Biological distribution, Brain
[3] = read-out: Biological distribution, Heart
[4] = read-out: Biological distribution, Kidney
[5] = read-out: Biological distribution, Large intestine
[6] = read-out: Biological distribution, Liver
[7] = read-out: Biological distribution, Lung
[8] = read-out: Biological distribution, Muscle
[9] = read-out: Biological distribution, Small intestine
[10] = read-out: Biological distribution, Stomach
[11] = B16-F1 melanoma, read-out: Biological distribution, Melanoma

CSCC[C@H](NC(=O)[C@H](CO)NC(=O)[C@H](Cc1ccc(O)cc1)NC(=O)[C@H](CO)NC(C)=O)C(=O)N[C@@H](CCC(=O)O)C(=O)N[C@@H](Cc1c[nH]cn1)C(=O)N[C@@H](Cc1ccccc1)C(=O)N[C@@H](CCCNC(=N)N)C(=O)N[C@@H](Cc1c[nH]c2ccccc12)C(=O)NCC(=O)N[C@@H](CCCCNC(=S)Nc1ccc(C[C@H]2CN(CC(=O)O)CCN(CC(=O)O)CCN(CC(=O)O)CCN2CC(=O)O)cc1)C(=O)N1CCC[C@H]1C(=O)N[C@H](C(=O)O)C(C)C [^111In-labeled 4-arm DOTA-α-MSH, metal not drawn]
tissue uptake at 10 min [1]: 4.03 %ID/g | tissue uptake at 10 min [2]: 0.04 %ID/g | tissue uptake at 10 min [3]: 0.55 %ID/g | tissue uptake at 10 min [4]: 17.1 %ID/g | tissue uptake dose at 10 min [5]: 0.03 %ID | tissue uptake at 10 min [6]: 2.52 %ID/g | tissue uptake at 10 min [7]: 0.42 %ID/g | tissue uptake at 10 min [8]: 0.1 %ID/g | tissue uptake dose at 10 min [9]: 0.05 %ID | tissue uptake dose at 10 min [10]: 0.09 %ID | tissue uptake at 0.5 h [1]: 2.02 %ID/g | tissue uptake at 0.5 h [2]: 0.03 %ID/g | tissue uptake at 0.5 h [3]: 0.46 %ID/g | tissue uptake at 0.5 h [4]: 13.3 %ID/g | tissue uptake dose at 0.5 h [5]: 0.03 %ID | tissue uptake at 0.5 h [6]: 1.45 %ID/g | tissue uptake at 0.5 h [7]: 0.52 %ID/g | tissue uptake at 0.5 h [8]: 0.12 %ID/g | tissue uptake dose at 0.5 h [9]: 0.04 %ID | tissue uptake dose at 0.5 h [10]: 0.09 %ID | tissue uptake at 1 h [1]: 1.01 %ID/g | tissue uptake at 1 h [2]: 0.03 %ID/g | tissue uptake at 1 h [3]: 0.38 %ID/g | tissue uptake at 1 h [4]: 8.12 %ID/g | tissue uptake dose at 1 h [5]: 0.04 %ID | tissue uptake at 1 h [6]: 1.18 %ID/g | tissue uptake at 1 h [7]: 0.22 %ID/g | tissue uptake at 1 h [8]: 0.08 %ID/g | tissue uptake dose at 1 h [9]: 0.03 %ID | tissue uptake dose at 1 h [10]: 0.08 %ID | tissue uptake at 2 h [1]: 0.11 %ID/g | tissue uptake at 2 h [2]: 0.02 %ID/g | tissue uptake at 2 h [3]: 0.14 %ID/g | tissue uptake at 2 h [4]: 6.31 %ID/g | tissue uptake dose at 2 h [5]: 0.03 %ID | tissue uptake at 2 h [6]: 0.9 %ID/g | tissue uptake at 2 h [7]: 0.13 %ID/g | tissue uptake at 2 h [8]: 0.04 %ID/g | tissue uptake dose at 2 h [9]: 0.02 %ID | tissue uptake dose at 2 h [10]: 0.05 %ID | tissue uptake at 3 h [1]: 0.03 %ID/g | tissue uptake at 3 h [2]: 0.01 %ID/g | tissue uptake at 3 h [3]: 0.05 %ID/g | tissue uptake at 3 h [4]: 5.19 %ID/g | tissue uptake dose at 3 h [5]: 0.03 %ID | tissue uptake at 3 h [6]: 0.61 %ID/g | tissue uptake at 3 h [7]: 0.06 %ID/g | tissue uptake at 3 h [8]: 0.03 %ID/g | tissue uptake dose at 3 h [9]: 0.02 %ID | tissue uptake dose at 3 h [10]: 0.05 %ID | tissue uptake at 10 min [11]: 2.22 %ID/g | tissue uptake at 0.5 h [11]: 2.25 %ID/g | tissue uptake at 1 h [11]: 3.34 %ID/g | tissue uptake at 2 h [11]: 4.52 %ID/g | tissue uptake at 3 h [11]: 4.83 %ID/g
